Test system: MS2 coat protein
Experiment: apparent KD of MS2 coat protein; designed switch direction (-1 OFF switch, 1 ON switch): -1; higher = weaker reporter binding
In short: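 Normalised cluster fluorescence was curve-fitted, and each design's median over clusters is its apparent KD. Before this, SNAP-549-labelled MS2 coat protein was titrated from 0.7 or 1.5 nM, doubling to 3 µM, over RNA switches transcribed on Illumina chips by stalled E. coli RNA polymerase. Titrations had no input, 200 uM small-molecule ligand, or an oligonucleotide input, and steps lasted 0.8–1.5 h (lowest) to 10–20 min (highest).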

[1] = input ligand: microRNA oligo, concentration not stated
[2] = Eterna round: R95, input ligand: FMN 200 uM
[3] = Eterna round: R95, input ligand: microRNA oligo, concentration not stated
[4] = Eterna round: R95, input ligand: none

Sequence	apparent KD of MS2 coat protein (input ligand: FMN 200 uM) [nM]	apparent KD of MS2 coat protein [1] [nM]	apparent KD of MS2 coat protein (input ligand: none) [nM]	apparent KD of MS2 coat protein [2] [nM]	apparent KD of MS2 coat protein [3] [nM]	apparent KD of MS2 coat protein [4] [nM]
UUGAUUCAUGUAGGAUAUGCGUGGCGAAGCUAUGCAGAAGGACAUGAGGAUCACCCAUGUGCUUGCGUCCGCGUACGGAUGCUA [JL ENG1 1.23] (Eterna round: R96, puzzle: Exclusion NG 1)	154	107	165	–	–	–
AGGUCCUUCUGGAGACAUGAGGAUCACCCAUGUCGGGUCAGCGAGGAUAUCGGUUAAUAAUGUGACGAGAAGGCGCGGACCGAU [Ex NG3 #56] (Eterna round: R96, puzzle: Exclusion NG 3)	104	19.5	24.9	–	–	–
UACGGUCCUAACAUGAGGAUCACCCAUGUAACAAAAGAAACCUAGGAUAUCCGCGCCGGAAGGAAGGAGAAGGAGGGCGUGGCA [Ededti] (Eterna round: R96, puzzle: Exclusion NG 3)	50.7	34.3	51.8	–	–	–
AGCUGUGGCCGAGGAUAUACAUGAGGAUCACCCAUGUUACAUAAUUAGGCCUGGUAACAGGCUCCGUAGAAGGCGGUCUCAGCA [Eli eng2 - 005] (Eterna round: R96, puzzle: Exclusion NG 2)	13	11.4	15.3	–	–	–
ACAUGAGGAUCACCCAUGUGCACGUAAUGGCUCAUGUAGAGAGAGGAUAUGUGUGACGAACGAGCACAGAAGGCUCAAGACUGG [Deportation 14 - Jieux - Exclusion NG 3] (Eterna round: R96, puzzle: Exclusion NG 3)	202	133	179	–	–	–
AAUUAGCAAGCGAGAUCCCACAUGAGGAUCACCCAUGUGCUCGUCUUAUAAGGUACUGUGACGAUAGUCACGGUACC [Mat - Sensor, turn-off var - Eli Mod - D20] (Eterna round: R97, puzzle: Sensor, turn-off variant 1)	15.6	–	13.5	–	–	–
ACACUGCGAGGAUAUACAUGAGGAUCACCCAUGUAUCGGUAGACAAGGUUAAUUUAAGGUAGAAGGCGCGUAUU [JR_Ex3_Sub008] (Eterna round: R97, puzzle: Exclusion 3)	36.9	–	29.1	–	–	–
UUGAAGAUAGGAUAUACGAGGAGAGGAGAGAGAAGGUGAGGACAUGAGGAUCACCCAUGUAGAAGGAUCAGGAG [JR_Exclu2_Sub066] (puzzle: Exclusion 2)	–	–	–	66.1	86.9	84.9
AGUACUAACACGAUAGUGUUAGUACUAUAAGCUUGUGUUACAUGAGGAUCACCCAUGUCCUCAUAAGCUCGUCUUAG [Mat - Sensor v3 - Turn-off var 2 - D66] (puzzle: Sensor v3, turn-off variant 2)	–	–	–	39.8	83.2	41.6
UAUUCUAGAUAGGAUAUACUUUUUUUUUUUUUCGUAGAAGGAUCUACAUGAGGAUCACCCAUGUUUUCAGCAGU [JR_E6_Sub012] (puzzle: Exclusion 6)	–	–	–	–	48.3	–
UAUUAGCAAGCAAGGUCCCACAUGAGGAUCACCCAUGUGCUCGUCUUAUAAGGUACUGUGACGAAAGUCACGGUACC [Sensor 3, v1 - 92] (puzzle: Sensor v3, turn-off variant 1)	–	–	–	46.6	–	53.1
AGUACUAACACGAAAGUGUUAGUACAAUAAGCUUGUGAAACAUGAGGAUCACCCAUGUCCUCAUGAGCUCGUCUUAU [salish99_TOv2_r3_051] (puzzle: Sensor v3, turn-off variant 2)	–	–	–	77.8	5.95	67.9
AGGGUAAAGUUAGGAUAUGCGAAUAAUCCAGACGCAGAAGGAACAGGUCGCAUGUGAGUCACAUGAGGAUCACCCAUGUAACUA [Ceissoar] (Eterna round: R96, puzzle: Exclusion NG 1)	143	29.6	36.1	–	–	–

From the supplement of paper PMC9170038
